{"source": "patent US9868768B2", "about": "“Hydrophobic modified pres-derived peptides of hepatitis B virus (HBV) and their use as vehicles for the specific delivery of compounds to the liver” (RUPRECHT-KARLS-UNIVERSITAT HEIDELBERG, priority 2008, dated 2018)", "key": {"[1]": {"assay": "Biodistribution of 131I-labelled peptides after subcutaneous injection in NMRI mice", "format": "in vivo, male NMRI mice", "details": "2.25 μg 131I-labeled peptide s.c., 10 min, 1 h, 4 h and 24 h post injection", "description": "Per time point 2.25 μg of ^131I-labeled HBVpreS/2-48^myr(D) were subcutaneously injected into NMRI mice (N=3). 10 min, 1 h, 4 h and 24 h post injection animals were sacrificed and the organ-specific (blood, lung, heart, spleen, liver, kidney and muscle) peptide accumulations (% ID/g) were determined.\nThe biodistribution of the hydrophobic modified preS-derived peptides was studied in male NMRI mice. All experiments were performed in compliance with German laws. The peptides, containing an additional Tyr-residue at the C-terminal end were labelled with ^131I (Amersham Biosciences, Freiburg, Germany) by the chloramine-T method and purified by HPLC. The labelled peptides were subcutaneously administered by injection of a solution in 50% DMSO. At selected times mice were sacrificed and the radioactivity contained in the blood, heart, lung, spleen, liver, kidney, muscle and brain was measured in a γ-counter (Canberra Packard, Rüsselsheim, Germany) and expressed as a percentage of injected dose per gram of tissue (% ID/g)."}, "[2]": {"assay": "Stability assessment of peptide after extraction from the liver (reversed phase HPLC)", "format": "in vivo, uPA+/−/RAG-2−/−Pfp−/− mice", "details": "liver extracts 24 h post subcutaneous injection, 131I-labelled", "description": "Per animal approximately 2.25 μg of the ^131I-labelled peptides were subcutaneously injected. At the indicated time points animals were sacrificed and the liver specific peptide accumulation (% ID/g) was determined. (B) Reversed phase HPLC of pure ^131I-labelled HBVpreS/2-48^myr(D) (brown curve) in comparison to liver extracts (orange curve) obtained 24 h post subcutaneous injection into uPA+/−/RAG-2−/−Pfp−/− mice of the same peptide. Note that 50% of detectable activity is eluting at fraction 13. Since the hydrophobic myristoyl residue is located at the N-terminus and the iodinated Tyr-residue at the C-terminus fraction 13 represents the unaltered full-length peptide.\nTo determine the peptide stability in the liver 131I labelled HBVpreS/2-48^myr (D) was extracted from one liver lobe 24 h post subcutaneous injection. To that aim, 1 ml water per gram frozen liver tissue was added to the sample. After homogenization an equal volume of acetonitrile was added and the homogenization was repeated. After centrifugation (2×10 min at 4000×g) this solution was separated on a reverse phase HPLC column and the radioactivity of each fraction was quantified in a gamma counter."}, "[3]": {"assay": "Biodistribution after subcutaneous application in uPA+/−/RAG-2−/−Pfp−/− mice", "format": "in vivo", "details": "2.25 μg 131I-labeled peptide s.c., 10 min to 24 h"}, "[4]": {"test_system": "primary human hepatocytes (PHH)", "assay": "Immunofluorescence binding to primary human hepatocytes", "format": "cell-based", "details": "400 nM peptide for 4 hours, confocal immunofluorescence", "description": "Primary human hepatocytes (PHH) were incubated with or without 400 nM peptide for 4 hours:\n(§1) Primary hepatocytes grown on cover slips were incubated with the respective peptide at 200 nM in serum-free cell culture medium. After 1 hour incubation at 37° C. cells were fixed and nuclei were stained with DAPI. Fluorescence microscopy was performed on a Spinning Disk Confocal Microscope at 600× magnification."}, "HepaRG cells": {"test_system": "HepaRG cells", "assay": "Immunofluorescence binding to HepaRG cells", "format": "cell-based", "details": "400 nM peptide, 4 hours at 37° C.", "description": "(§2) Cells were incubated with or without 400 nM peptide for 4 hours at 37° C.:\nHepaRG cells were grown in William's E medium supplemented with 10% fetal calf serum (FCS), 100 units/ml penicillin, 100 μg/ml streptomycin, 5 μg/ml insulin and 5×10^−5 M hydrocortisone hemisuccinate (10). Cells were passaged 1/5 every two weeks by trypsination. Two to three weeks before infection cell differentiation was induced by adding 2% DMSO into the maintenance medium. The medium was exchanged every 2-3 days.\nas §1"}, "[5]": {"test_system": "Primary mouse hepatocytes (PMH)", "assay": "FACS analysis of binding to primary mouse hepatocytes", "format": "cell-based", "details": "200 nM, 30 minutes at room temperature", "description": "Cryo-preserved primary hepatocytes were thawed and washed with serum-free medium. In each reaction 4×10^5 cells/ml were incubated with the respective peptide at a concentration of 200 nM in serum-free cell culture medium. The staining was performed for 30 minutes at room temperature with frequent mixing. Subsequently, cells were washed extensively and resuspended in PBS to proceed with the FACS analysis."}, "[6]": {"test_system": "Primary mouse hepatocytes (PMH)", "assay": "Immunofluorescence binding to primary mouse hepatocytes", "format": "cell-based", "details": "400 nM peptide, 4 hours at 37° C.; for Binding to primary mouse hepatocytes (PMH): differentiated PMH", "description": "as §2\n[…] After 1 hour incubation at 37° C. cells were fixed and nuclei were stained with DAPI. Fluorescence microscopy was performed on a Spinning Disk Confocal Microscope at 600× magnification."}}, "note": "Entries after “also recorded” stand apart in the source; their conditions may differ."}
{"substance": "HBVpreS/2-48^myr(D): SEQ ID NO. 23, genotype D residues 2-48, N-terminus myristoylated", "values": [{"measurement": "organ-specific peptide accumulation (biodistribution)", "setting": "[1]", "value": "most of the peptide accumulates in the liver"}, {"measurement": "detectable activity eluting at fraction 13 (unaltered full-length peptide) in liver extract", "setting": "[2]", "value": 50, "unit": "%"}, {"measurement": "organ-specific peptide accumulation (biodistribution)", "setting": "[3]", "value": "most of the peptide accumulates in the liver"}]}
{"substance": "mut myr-FITC: HBVpreS/2-48 myr (C)-FITC with D-Leu and D-Phe at positions L11 and F13 [reference compound]", "values": [{"measurement": "Binding to primary human hepatocytes (PHH)", "setting": "[4]", "value": "only in B binding of the peptide to the cells can be seen"}, {"measurement": "Binding to differentiated HepaRG cells", "setting": "HepaRG cells", "value": "Only wt myr-FITC binds to the cells"}, {"measurement": "Binding to primary mouse hepatocytes (PMH), FACS analysis", "setting": "[5]", "value": "Only wt myr-FITC binds to the cells"}, {"measurement": "Binding to primary mouse hepatocytes (PMH)", "setting": "[6]", "value": "Only wt myr-FITC binds to the cells"}]}
{"substance": "wt myr(−)-FITC: HBVpreS/2-48(C)-FITC without myristoylation [reference compound]", "values": [{"measurement": "Binding to primary human hepatocytes (PHH)", "setting": "[4]", "value": "only in B binding of the peptide to the cells can be seen"}, {"measurement": "Binding to differentiated HepaRG cells", "setting": "HepaRG cells", "value": "Only wt myr-FITC binds to the cells"}, {"measurement": "Binding to primary mouse hepatocytes (PMH)", "setting": "[6]", "value": "Only wt myr-FITC binds to the cells"}]}
{"substance": "wt myr-FITC: HBVpreS/2-48 myr (C) with lysine at the C-terminus [SEQ ID NO. 39], labelled with FITC", "values": [{"measurement": "Binding to primary human hepatocytes (PHH)", "setting": "[4]", "value": "only in B binding of the peptide to the cells can be seen"}, {"measurement": "Binding to differentiated HepaRG cells", "setting": "HepaRG cells", "value": "Only wt myr-FITC binds to the cells; also recorded: binds only to differentiated cells"}, {"measurement": "Binding to undifferentiated HepaRG cells", "setting": "HepaRG cells; undifferentiated cells", "value": "binds only to differentiated cells"}, {"measurement": "Binding to primary mouse hepatocytes (PMH), FACS analysis", "setting": "[5]", "value": "Only wt myr-FITC binds to the cells"}, {"measurement": "Binding to de-differentiated primary mouse hepatocytes (PMH)", "setting": "[6]; de-differentiated PMH", "value": "binds only to differentiated cells"}, {"measurement": "Binding to primary mouse hepatocytes (PMH)", "setting": "[6]", "value": "Only wt myr-FITC binds to the cells; also recorded: binds only to differentiated cells"}]}
